Laboratory results reported in the supplement of paper PMC9233669.
Variants at the floor of the assay were thinned out.

Legend:
[1] = tested on: biotinyl-Phe-oxazolone; experiment: self-aminoacylation, catalytic enhancement (BFO) (fold over background); higher = more active; k-Seq, kA / k0A0; sequences stand for … in GGGAAUGGAUCCACAUCUACGAAUUC…UUCACUGCAGACUUGACGAAGCUG
Outline: (§1)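 Mutagenized RNA pools (0.43 μM; 21-nt variable region) were treated with 2–1250 μM of each biotinyl-aminoacyl-oxazolone. Conditions were 50 μL HEPES/NaCl/KCl/MgCl2/CaCl2 buffer, 5% acetonitrile, pH 6.9–7.0, room temperature, 90 minutes. Catalytic enhancement, the median kA relative to the uncatalyzed rate, was derived from streptavidin capture, qPCR and Illumina sequencing.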

[2] = tested on: biotinyl-Leu-oxazolone; experiment: self-aminoacylation, catalytic enhancement (BLO) (fold over background); higher = more active; k-Seq, kA / k0A0; sequences stand for … in GGGAAUGGAUCCACAUCUACGAAUUC…UUCACUGCAGACUUGACGAAGCUG
Outline: as §1

[3] = tested on: biotinyl-Val-oxazolone; experiment: self-aminoacylation, catalytic enhancement (BVO) (fold over background); higher = more active; k-Seq, kA / k0A0; sequences stand for … in GGGAAUGGAUCCACAUCUACGAAUUC…UUCACUGCAGACUUGACGAAGCUG
Outline: as §1

[4] = tested on: biotinyl-Trp-oxazolone; experiment: self-aminoacylation, catalytic enhancement (BWO) (fold over background); higher = more active; k-Seq, kA / k0A0; sequences stand for … in GGGAAUGGAUCCACAUCUACGAAUUC…UUCACUGCAGACUUGACGAAGCUG
Outline: as §1

[5] = tested on: biotinyl-Met-oxazolone; experiment: self-aminoacylation, catalytic enhancement (BMO) (fold over background); higher = more active; k-Seq, kA / k0A0; sequences stand for … in GGGAAUGGAUCCACAUCUACGAAUUC…UUCACUGCAGACUUGACGAAGCUG
Outline: as §1

[6] = tested on: biotinyl-Ile-oxazolone; experiment: self-aminoacylation, catalytic enhancement (BIO) (fold over background); higher = more active; k-Seq, kA / k0A0; sequences stand for … in GGGAAUGGAUCCACAUCUACGAAUUC…UUCACUGCAGACUUGACGAAGCUG
Outline: as §1

Sequence | self-aminoacylation [1] | self-aminoacylation [2] | self-aminoacylation [3] | self-aminoacylation [4] | self-aminoacylation [5] | self-aminoacylation [6]
AUUACCAUGGUCAUCGCGUGA [Fam2.1 aminoacylation ribozyme variant] | 189 | 25.2 | 12.1 | 26.7 | 24.6 | 10.3
AUUACCAUGGUCCUCGAGUGA [Fam2.1 aminoacylation ribozyme variant] | 29.3 | 5.83 | 2.68 | 4.82 | 4.88 | 2.48
AUUACCCAGGUCAUCAAGUGA [Fam2.1 aminoacylation ribozyme variant] | 3.35 | 1.97 | 1.59 | 2.63 | 1.97 | 1.47
AUUACCCAGGUCAUCGACUGA [Fam2.1 aminoacylation ribozyme variant] | 0.774 | 0.746 | 1.03 | 0.9 | 0.743 | 0.847
AUUACCCAGGUCAUCGAGUUA [Fam2.1 aminoacylation ribozyme variant] | 1.39 | 0.915 | 1 | 1.32 | 0.882 | 1.01
AUUACCCAGGUCAUGGAGUGA [Fam2.1 aminoacylation ribozyme variant] | 8.43 | 4.67 | 3.01 | 4.7 | 3.83 | 2.85
AUUACCCAGGUUAUCGAGUGA [Fam2.1 aminoacylation ribozyme variant] | 50.4 | 9.68 | 4.25 | 11.6 | 9.6 | 3.94
AUUACCCCAGUCAUCGAGUGA [Fam2.1 aminoacylation ribozyme variant] | 24.9 | 4.88 | 3.25 | 6.76 | 6.05 | 2.92
AUUACCCCGGUCAACGAGUGA [Fam2.1 aminoacylation ribozyme variant] | 28.2 | 4.74 | 3.47 | 6.44 | 5.86 | 3.08
AUUACCCCGGUCAUCGGGUGA [Fam2.1 aminoacylation ribozyme variant] | 103 | 15.9 | 7.32 | 12.7 | 14.4 | 5.57
AUUACCCCGGUCAUUGAGUGA [Fam2.1 aminoacylation ribozyme variant] | 43.9 | 6.53 | 3.79 | 8.47 | 7.29 | 3.22
AUUACCCGAGUCAUCGAGUGA [Fam2.1 aminoacylation ribozyme variant] | 62.6 | 8.84 | 4.68 | 10.2 | 8.55 | 4.27
AUUACCCGGAUCAUCGAGUGA [Fam2.1 aminoacylation ribozyme variant] | 38.4 | 7.92 | 4.04 | 7.26 | 7.04 | 3.43
AUUACCCGGGUCAGCGAGUGA [Fam2.1 aminoacylation ribozyme variant] | 55.5 | 7.97 | 5.24 | 10.2 | 8.03 | 5.75
AUUACCCGGGUCAUCGAGUGG [Fam2.1 aminoacylation ribozyme variant] | 10.1 | 1.92 | 1.81 | 2.45 | 1.63 | 1.25
AUUACCCGGGUCAUCUAGUGA [Fam2.1 aminoacylation ribozyme variant] | 70.8 | 11 | 5.08 | 11.2 | 9.33 | 4.46
AUUACCCGGGUCAUGGAGUGA [Fam2.1 aminoacylation ribozyme variant] | 25.8 | 4.59 | 2.87 | 4.98 | 4.26 | 2.82
AUUACCCGGGUCCUCGAGUGA [Fam2.1 aminoacylation ribozyme variant] | 47.4 | 7.78 | 3.84 | 7.11 | 5.42 | 3.5
AUUACCCUAGUCAUCGAAUGA [Fam2.1 aminoacylation ribozyme variant] | 0.87 | 0.924 | 1.06 | 0.469 | 1.02 | 0.919
AUUACCCUAGUCAUCGAGUUA [Fam2.1 aminoacylation ribozyme variant] | 1.05 | 0.9 | 1.17 | 0.53 | 0.978 | 0.922
AUUACCCUAGUCCUCGAGUGA [Fam2.1 aminoacylation ribozyme variant] | 15.9 | 3.93 | 2.34 | 4.08 | 4.15 | 2.2
AUUACCCUAGUCUUCGAGUGA [Fam2.1 aminoacylation ribozyme variant] | 24.6 | 5 | 3.22 | 7.87 | 5.54 | 3.09
